This test deals with transcriptional enhancer associated domain (TEAD) transcription factor (human (endogenous in A375)) (UniProt P28347).
Chain of UniProt P28347 (P28347 whole entry, the tested form may be a part): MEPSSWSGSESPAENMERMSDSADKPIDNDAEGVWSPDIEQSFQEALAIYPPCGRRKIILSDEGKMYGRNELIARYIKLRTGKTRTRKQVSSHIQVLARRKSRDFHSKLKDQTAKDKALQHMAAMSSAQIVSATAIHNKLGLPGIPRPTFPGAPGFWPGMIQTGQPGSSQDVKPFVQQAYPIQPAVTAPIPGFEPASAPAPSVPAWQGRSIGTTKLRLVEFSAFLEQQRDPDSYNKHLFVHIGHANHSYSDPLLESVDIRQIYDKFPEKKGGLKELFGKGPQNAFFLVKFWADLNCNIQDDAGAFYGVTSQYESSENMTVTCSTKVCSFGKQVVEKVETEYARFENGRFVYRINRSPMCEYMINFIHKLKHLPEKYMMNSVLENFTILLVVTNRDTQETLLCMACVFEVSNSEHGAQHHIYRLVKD

Turning to “yes-associated protein (YAP) (from UniProt P46937 1-504) (natural protein)”, the TEAD luciferase reporter (8xGTIIC) in A375 TEAD luciferase-stable melanoma cells, decrease of luciferase expression with the small molecule BY03 at 10 nM to 10 μM stood at 75% and the TEAD-dependent luciferase reporter (8xGTIIC) in HEK293T cells with ectopic expression of YAP-S127A, decrease of luciferase expression with the small molecule BY03 at 20 μM is 68%.

(Values after article PMC8391968.)
